Experimental data: patent US20150344570A1 (published 2015)

T1: FcγRIIa R (human, UniProt P12318 34-217)
T1 construct: extracellular domain; also called FcgRIIa R; FcγRIIa type R; not shown: His tag at the C terminus
T1 sequence (looked up): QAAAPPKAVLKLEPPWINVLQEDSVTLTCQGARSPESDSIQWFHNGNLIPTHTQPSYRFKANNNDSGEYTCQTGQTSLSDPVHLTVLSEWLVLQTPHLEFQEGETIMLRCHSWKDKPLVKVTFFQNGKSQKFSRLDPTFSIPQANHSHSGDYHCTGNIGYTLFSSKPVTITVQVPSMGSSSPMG

T2: FcγRIIb (human, UniProt P31994 43-217)
T2 construct: extracellular domain; also called FcgRIIb; 2b; not shown: His tag at the C terminus
T2 sequence (looked up): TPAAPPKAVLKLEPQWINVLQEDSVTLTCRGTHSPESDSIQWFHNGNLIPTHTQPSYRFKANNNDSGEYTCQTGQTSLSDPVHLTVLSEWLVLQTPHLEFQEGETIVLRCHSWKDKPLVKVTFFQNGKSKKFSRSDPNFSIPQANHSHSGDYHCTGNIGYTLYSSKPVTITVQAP


What was measured:
[1] = biological target: T3, FcγRIa extracellular domain with C-terminal His tag (human, UniProt P12314 16-292); assay: SPR (Biacore), relative binding, HeCon Ab = 100
T3 construct: extracellular domain; Expressed in FreeStyle293 cells; analyte in the SPR assay; also called FcgRI; 1a

[2] = biological target: T3, FcγRIa extracellular domain with …; assay: SPR (Biacore); He/Con_1a divided by He/Con_2b (FcγRIa against FcγRIIb)
FcγRIIa R [3] = biological target: T1, FcγRIIa R; assay: SPR (Biacore T100); He/Con_2aR divided by He/Con_2b (FcγRIIa R over FcγRIIb)
Description: (§1) The heterodimerized antibodies He Abs in which one of the H chains was introduced with an alteration were assayed for their binding activities to each activating FcγR and inhibitory FcγR according to the method described in Example 4. […] The activating FcγRs in FIGS. 26, 27, 28, and 29 are FcγRIa, FcγRIIa (R), FcγRIIa (H), and FcγRIIIa, respectively.
(§2) Analysis of interaction between objective antibody and the FcγR was carried out using Biacore T100 (GE Healthcare). HBS-EP+ (GE Healthcare) was used as the running buffer, and the measurement temperature was set to 25° C. Chips produced by immobilizing the antigen peptide by the amine coupling method to a Series S Sencor Chip CM5 (GE Healthcare), or alternatively, chips produced by allowing preliminarily biotinylated antigen peptides to interact with and immobilize onto a Series S Sensor Chip SA (certified) (GE Healthcare) were used. Antibodies of interest were captured onto an antigen peptide-immobilized chip, and allowed to interact to each FcγR diluted with running buffer. To regenerate and repeatedly use the chip, the antibodies captured on the chip were washed off by reacting 10 mM glycine-HCl, pH 1.5.

FcγRIIa R [4] = biological target: T1, FcγRIIa R; assay: SPR (Biacore T100), antibody captured on antigen peptide chip, FcγR as analyte; binding relative to GpH7-A5/GpH7-B3/GpL16-k0 = 100
Description: as §1, §2

FcγRIIb = biological target: T2, FcγRIIb; assay: as above
Description: as §1, §2

T3 sequence (P12314 16-292): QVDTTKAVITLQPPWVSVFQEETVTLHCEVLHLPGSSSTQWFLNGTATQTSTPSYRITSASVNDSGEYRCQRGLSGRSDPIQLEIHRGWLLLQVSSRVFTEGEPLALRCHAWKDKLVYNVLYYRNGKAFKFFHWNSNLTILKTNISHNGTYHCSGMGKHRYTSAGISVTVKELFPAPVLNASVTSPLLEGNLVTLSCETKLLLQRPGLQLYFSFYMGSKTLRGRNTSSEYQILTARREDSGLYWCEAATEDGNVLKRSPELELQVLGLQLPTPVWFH

Binder	He/Con_1a [1]	He_1a/2b (Ia/IIb) [2] [ratio]	He_2aR/2b (IIaR/IIb) (FcγRIIa R [3]) [ratio]	He/Con_2aR (IIaR binding) (FcγRIIa R [4])	He/Con_2b (IIb binding) (FcγRIIb)
GpH7-A5/GpH7-B3 variant L235_12R/GpL16-k0 (He Ab) (antibody, human IgG1, kappa, He Ab: mutation in one H chain only) heavy 1: not shown heavy 2: not shown light: DIVMTQSPLSLPVTPGEPASISCQASESLVHSNRNTYLHWYLQKPGQSPQLLIYKVSNRFSGVPDRFSGSGSGTDFTLKISRVEAEDVGVYYCSQNTHVPPTFGQGTKVEIERTVAAPSVFIFPPSDEQLKSGTASVVCLLNNFYPREAKVQWKVDNALQSGNSQESVTEQDSKDSTYSLSSTLTLSKADYEKHKVYACEVTHQGLSSPVTKSFNRGEC	78 % of HeCon Ab (=100)	8.12	–	–	–
GpH7-A5/GpH7-B3 variant G237_05P/GpL16-k0 (antibody, human IgG1, kappa, Heterodimerized anti-glypican-3 IgG1; mutation in one H chain only; also called He Ab) heavy 1: not shown heavy 2: not shown light: DIVMTQSPLSLPVTPGEPASISCQASESLVHSNRNTYLHWYLQKPGQSPQLLIYKVSNRFSGVPDRFSGSGSGTDFTLKISRVEAEDVGVYYCSQNTHVPPTFGQGTKVEIERTVAAPSVFIFPPSDEQLKSGTASVVCLLNNFYPREAKVQWKVDNALQSGNSQESVTEQDSKDSTYSLSSTLTLSKADYEKHKVYACEVTHQGLSSPVTKSFNRGEC	–	–	1.4	34.5 % of control	24.6 % of control
GpH7-A5/GpH7-B3 variant G237_14T/GpL16-k0 (antibody, human IgG1, kappa, Heterodimerized anti-glypican-3 IgG1; mutation in one H chain only; also called He Ab) heavy 1: not shown heavy 2: not shown light: DIVMTQSPLSLPVTPGEPASISCQASESLVHSNRNTYLHWYLQKPGQSPQLLIYKVSNRFSGVPDRFSGSGSGTDFTLKISRVEAEDVGVYYCSQNTHVPPTFGQGTKVEIERTVAAPSVFIFPPSDEQLKSGTASVVCLLNNFYPREAKVQWKVDNALQSGNSQESVTEQDSKDSTYSLSSTLTLSKADYEKHKVYACEVTHQGLSSPVTKSFNRGEC	–	–	1.43	78.6 % of control	54.8 % of control
GpH7-A5/GpH7-B3 variant G237_16H/GpL16-k0 (antibody, human IgG1, kappa, Heterodimerized anti-glypican-3 IgG1; mutation in one H chain only; also called He Ab) heavy 1: not shown heavy 2: not shown light: DIVMTQSPLSLPVTPGEPASISCQASESLVHSNRNTYLHWYLQKPGQSPQLLIYKVSNRFSGVPDRFSGSGSGTDFTLKISRVEAEDVGVYYCSQNTHVPPTFGQGTKVEIERTVAAPSVFIFPPSDEQLKSGTASVVCLLNNFYPREAKVQWKVDNALQSGNSQESVTEQDSKDSTYSLSSTLTLSKADYEKHKVYACEVTHQGLSSPVTKSFNRGEC	–	–	1.35	74.5 % of control	55.2 % of control
GpH7-A5/GpH7-B3 variant P238_02A/GpL16-k0 (antibody, human IgG1, kappa, Heterodimerized anti-glypican-3 IgG1; mutation in one H chain only; also called He Ab) heavy 1: not shown heavy 2: not shown light: DIVMTQSPLSLPVTPGEPASISCQASESLVHSNRNTYLHWYLQKPGQSPQLLIYKVSNRFSGVPDRFSGSGSGTDFTLKISRVEAEDVGVYYCSQNTHVPPTFGQGTKVEIERTVAAPSVFIFPPSDEQLKSGTASVVCLLNNFYPREAKVQWKVDNALQSGNSQESVTEQDSKDSTYSLSSTLTLSKADYEKHKVYACEVTHQGLSSPVTKSFNRGEC	–	–	1.31	75.1 % of control	57.4 % of control
GpH7-A5/GpH7-B3 variant P238_11K/GpL16-k0 (antibody, human IgG1, kappa, Heterodimerized anti-glypican-3 IgG1; mutation in one H chain only; also called He Ab) heavy 1: not shown heavy 2: not shown light: DIVMTQSPLSLPVTPGEPASISCQASESLVHSNRNTYLHWYLQKPGQSPQLLIYKVSNRFSGVPDRFSGSGSGTDFTLKISRVEAEDVGVYYCSQNTHVPPTFGQGTKVEIERTVAAPSVFIFPPSDEQLKSGTASVVCLLNNFYPREAKVQWKVDNALQSGNSQESVTEQDSKDSTYSLSSTLTLSKADYEKHKVYACEVTHQGLSSPVTKSFNRGEC	–	–	2.03	36.9 % of control	18.1 % of control
GpH7-A5/GpH7-B3 variant P238_12R/GpL16-k0 (antibody, human IgG1, kappa, Heterodimerized anti-glypican-3 IgG1; mutation in one H chain only; also called He Ab) heavy 1: not shown heavy 2: not shown light: DIVMTQSPLSLPVTPGEPASISCQASESLVHSNRNTYLHWYLQKPGQSPQLLIYKVSNRFSGVPDRFSGSGSGTDFTLKISRVEAEDVGVYYCSQNTHVPPTFGQGTKVEIERTVAAPSVFIFPPSDEQLKSGTASVVCLLNNFYPREAKVQWKVDNALQSGNSQESVTEQDSKDSTYSLSSTLTLSKADYEKHKVYACEVTHQGLSSPVTKSFNRGEC	–	–	1.57	80.5 % of control	51.4 % of control
GpH7-A5/GpH7-B3 variant P238_13S/GpL16-k0 (antibody, human IgG1, kappa, Heterodimerized anti-glypican-3 IgG1; mutation in one H chain only; also called He Ab) heavy 1: not shown heavy 2: not shown light: DIVMTQSPLSLPVTPGEPASISCQASESLVHSNRNTYLHWYLQKPGQSPQLLIYKVSNRFSGVPDRFSGSGSGTDFTLKISRVEAEDVGVYYCSQNTHVPPTFGQGTKVEIERTVAAPSVFIFPPSDEQLKSGTASVVCLLNNFYPREAKVQWKVDNALQSGNSQESVTEQDSKDSTYSLSSTLTLSKADYEKHKVYACEVTHQGLSSPVTKSFNRGEC	–	–	1.26	88.9 % of control	70.4 % of control
GpH7-A5/GpH7-B3 variant P238_14T/GpL16-k0 (antibody, human IgG1, kappa, Heterodimerized anti-glypican-3 IgG1; mutation in one H chain only; also called He Ab) heavy 1: not shown heavy 2: not shown light: DIVMTQSPLSLPVTPGEPASISCQASESLVHSNRNTYLHWYLQKPGQSPQLLIYKVSNRFSGVPDRFSGSGSGTDFTLKISRVEAEDVGVYYCSQNTHVPPTFGQGTKVEIERTVAAPSVFIFPPSDEQLKSGTASVVCLLNNFYPREAKVQWKVDNALQSGNSQESVTEQDSKDSTYSLSSTLTLSKADYEKHKVYACEVTHQGLSSPVTKSFNRGEC	–	–	1.44	73.1 % of control	50.7 % of control
GpH7-A5/GpH7-B3 variant P238_18N/GpL16-k0 (antibody, human IgG1, kappa, Heterodimerized anti-glypican-3 IgG1; mutation in one H chain only; also called He Ab) heavy 1: not shown heavy 2: not shown light: DIVMTQSPLSLPVTPGEPASISCQASESLVHSNRNTYLHWYLQKPGQSPQLLIYKVSNRFSGVPDRFSGSGSGTDFTLKISRVEAEDVGVYYCSQNTHVPPTFGQGTKVEIERTVAAPSVFIFPPSDEQLKSGTASVVCLLNNFYPREAKVQWKVDNALQSGNSQESVTEQDSKDSTYSLSSTLTLSKADYEKHKVYACEVTHQGLSSPVTKSFNRGEC	–	–	1.26	91.9 % of control	73.2 % of control
GpH7-A5/GpH7-B3 variant S239_04F/GpL16-k0 (antibody, human IgG1, kappa, Heterodimerized anti-glypican-3 IgG1; mutation in one H chain only; also called He Ab) heavy 1: not shown heavy 2: not shown light: DIVMTQSPLSLPVTPGEPASISCQASESLVHSNRNTYLHWYLQKPGQSPQLLIYKVSNRFSGVPDRFSGSGSGTDFTLKISRVEAEDVGVYYCSQNTHVPPTFGQGTKVEIERTVAAPSVFIFPPSDEQLKSGTASVVCLLNNFYPREAKVQWKVDNALQSGNSQESVTEQDSKDSTYSLSSTLTLSKADYEKHKVYACEVTHQGLSSPVTKSFNRGEC	–	–	1.24	54.8 % of control	44.1 % of control
GpH7-A5/GpH7-B3 variant S239_11K/GpL16-k0 (antibody, human IgG1, kappa, Heterodimerized anti-glypican-3 IgG1; mutation in one H chain only; also called He Ab) heavy 1: not shown heavy 2: not shown light: DIVMTQSPLSLPVTPGEPASISCQASESLVHSNRNTYLHWYLQKPGQSPQLLIYKVSNRFSGVPDRFSGSGSGTDFTLKISRVEAEDVGVYYCSQNTHVPPTFGQGTKVEIERTVAAPSVFIFPPSDEQLKSGTASVVCLLNNFYPREAKVQWKVDNALQSGNSQESVTEQDSKDSTYSLSSTLTLSKADYEKHKVYACEVTHQGLSSPVTKSFNRGEC	–	–	1.96	48.5 % of control	24.7 % of control
GpH7-A5/GpH7-B3 variant S239_12R/GpL16-k0 (antibody, human IgG1, kappa, Heterodimerized anti-glypican-3 IgG1; mutation in one H chain only; also called He Ab) heavy 1: not shown heavy 2: not shown light: DIVMTQSPLSLPVTPGEPASISCQASESLVHSNRNTYLHWYLQKPGQSPQLLIYKVSNRFSGVPDRFSGSGSGTDFTLKISRVEAEDVGVYYCSQNTHVPPTFGQGTKVEIERTVAAPSVFIFPPSDEQLKSGTASVVCLLNNFYPREAKVQWKVDNALQSGNSQESVTEQDSKDSTYSLSSTLTLSKADYEKHKVYACEVTHQGLSSPVTKSFNRGEC	–	–	1.38	53.9 % of control	39.1 % of control
GpH7-A5/GpH7-B3 variant S239_15Y/GpL16-k0 (antibody, human IgG1, kappa, Heterodimerized anti-glypican-3 IgG1; mutation in one H chain only; also called He Ab) heavy 1: not shown heavy 2: not shown light: DIVMTQSPLSLPVTPGEPASISCQASESLVHSNRNTYLHWYLQKPGQSPQLLIYKVSNRFSGVPDRFSGSGSGTDFTLKISRVEAEDVGVYYCSQNTHVPPTFGQGTKVEIERTVAAPSVFIFPPSDEQLKSGTASVVCLLNNFYPREAKVQWKVDNALQSGNSQESVTEQDSKDSTYSLSSTLTLSKADYEKHKVYACEVTHQGLSSPVTKSFNRGEC	–	–	1.21	42.2 % of control	34.9 % of control
GpH7-A5/GpH7-B3 variant S239_16H/GpL16-k0 (antibody, human IgG1, kappa, Heterodimerized anti-glypican-3 IgG1; mutation in one H chain only; also called He Ab) heavy 1: not shown heavy 2: not shown light: DIVMTQSPLSLPVTPGEPASISCQASESLVHSNRNTYLHWYLQKPGQSPQLLIYKVSNRFSGVPDRFSGSGSGTDFTLKISRVEAEDVGVYYCSQNTHVPPTFGQGTKVEIERTVAAPSVFIFPPSDEQLKSGTASVVCLLNNFYPREAKVQWKVDNALQSGNSQESVTEQDSKDSTYSLSSTLTLSKADYEKHKVYACEVTHQGLSSPVTKSFNRGEC	–	–	1.4	69.2 % of control	49.4 % of control
